According to publication PMC4245980:

What was measured:
Test in all cases: EMSA
McbR WT = McbR WT (Escherichia coli, UniProt P76114 1-221)
McbR R89A/E93A/R139A = McbR R89A/E93A/R139A (Escherichia coli, UniProt P76114 1-221, R89A;E93A;R139A)
McbR E93S/R139F = McbR E93S/R139F (Escherichia coli, UniProt P76114 1-221, E93S;R139F)

Measured: binding result

B1: PyciGECO (dsDNA)
DNA 1: AATTGTTAATATATCCAGAATGTTCCTCAAAATATATTTTCCCTCTAT
DNA 2: ATAGAGGGAAAATATATTTTGAGGAACATTCTGGATATATTAACAATT
binds: all assays above
